From the supplement of paper PMC10065799, “High-throughput profiling of sequence recognition by tyrosine kinases and SH2 domains using bacterial peptide display” (eLife, 2023)

The sequences below were run on c-Src (assay: phosphorylation enrichment, bacterial display (enrichment ratio); higher = better substrate or ligand; peptides without Tyr show the background).
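For SH2 binding enrichment of the phosphorylated peptide, bacterial display in this document: peptide library displayed on the E. coli surface as eCPX fusions, selected cells deep-sequenced, score is each peptide's frequency after selection divided by its frequency in the input.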
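For phosphorylation enrichment, bacterial display in this document: 11-residue human phosphosite peptides and single-mutation variants displayed on the E. coli surface, counted by deep sequencing, each peptide's frequency after selection divided by its frequency in the unselected input library; frequency after pTyr selection over input frequency; kinase dosed for 20-30% of maximal phosphorylation in three min.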

| Sequence | phosphorylation enrichment |
| --- | --- |
| FDSPFYQDSLP [TSC1_Y508_R509Q] | 0.473 |
| HKANEYYPVVL [ADAMTS18_Y764] | 1.65 |
| GVMLLYYGRYN [ADGRD1_Y85_T82M] | 2.23 |
| SSSNPYSTVTM [ACTN2_Y599] | 1.9 |
| AEQEEYSAMRD [NRAS_Y64_G60E] | 0.536 |
| GKTQQYECKWF [BCR_Y751_D752E_YF] | 0.472 |
| RELGEYALAEF [ALDH1A3_Y492_YF] | 0.665 |
| TYGQVYKGPHV [TNIK_Y40_R43P] | 9.04 |
| RLGDLYKEEMR [VIM_Y150_E151K] | 0.587 |
| EEKKKYYDAKI [CASP5_Y103_T106A] | 0.396 |
| PTDSVYVMPTV [MYO7A_Y1668] | 4.43 |
| NQDRTYYESVR [SPEN_Y632] | 2 |
| FSTDCYRVGGH [NTRK2_Y707_Y706C_YF] | 0.608 |
| KDQPDYKFQPR [SOX9_Y172_H169Q_YF] | 0.434 |
| KSVLVYRNGDP [DCDC2_Y22] | 0.4 |
| FTHSDYQFSQR [PKP2_Y166_YF] | 0.455 |
| ADRNHYRRFRR [YBX1_Y145_P149R_YF] | 0.548 |

| Sequence | phosphorylation enrichment |
| --- | --- |
| FARNSYVAGQY [G6PD_Y107] | 0.535 |
| FSEVRYMKEPY [HIPK4_Y170_V171M] | 0.432 |
| FFFDLYGGEKF [PTPN11_Y66_D61Y_YF] | 1.15 |
| VYYGSYSCPYG [NKAP_Y104_R106C] | 6.91 |
| SSFSRYIMMPN [LEF1_Y114_G113R_YF] | 0.485 |
| LGSNTYPFLLT [SAG_Y120] | 0.543 |
| DTLLEYLENPK [CYCS_Y68_M66L] | 0.463 |
| AKAEICEMRPL [COX10_Y97_Y97C] | 0.533 |
| IGEVVYQRAVM [GRIN2A_Y502] | 1.57 |
| SFCFRYRCAAR [SUMF1_Y344_YF] | 0.618 |
| LTFDEYRNNSQ [ANXA3_Y216_I219N] | 0.753 |
| RVLHNYLVWRV [ECEL1_Y400] | 0.526 |
| SLVGCYNLTFM [HS6ST3_Y323] | 0.794 |
| LKTNCYNNGKD [DNMT3B_Y404] | 0.572 |
| TLERHYEELQA [SPTBN2_Y834] | 0.505 |
| CTTIHYSFMCN [TP53_Y234_N235S_YF] | 0.544 |

These sequences were tested against Grb2 SH2 (UniProt P62993) (assay: SH2 binding enrichment of the phosphorylated peptide, bacterial display (enrichment ratio); higher = better substrate or ligand; peptides without Tyr show the background).
Chain of Grb2 SH2 (P62993 whole entry, looked up): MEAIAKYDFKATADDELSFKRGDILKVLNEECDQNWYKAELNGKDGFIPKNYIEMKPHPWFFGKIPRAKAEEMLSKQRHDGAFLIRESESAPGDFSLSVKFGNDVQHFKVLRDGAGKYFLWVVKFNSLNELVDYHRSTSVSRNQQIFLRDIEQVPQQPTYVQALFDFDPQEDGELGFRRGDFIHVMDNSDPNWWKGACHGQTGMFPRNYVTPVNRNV

| Sequence | SH2 binding enrichment |
| --- | --- |
| FDSPFYQDSLP [TSC1_Y508_R509Q] | 0.917 |
| HKANEYYPVVL [ADAMTS18_Y764] | 0.902 |
| GVMLLYYGRYN [ADGRD1_Y85_T82M] | 1.17 |
| SSSNPYSTVTM [ACTN2_Y599] | 0.766 |
| AEQEEYSAMRD [NRAS_Y64_G60E] | 1.01 |
| GKTQQYECKWF [BCR_Y751_D752E_YF] | 0.694 |
| RELGEYALAEF [ALDH1A3_Y492_YF] | 0.684 |
| TYGQVYKGPHV [TNIK_Y40_R43P] | 0.702 |
| RLGDLYKEEMR [VIM_Y150_E151K] | 1.09 |
| EEKKKYYDAKI [CASP5_Y103_T106A] | 1.28 |
| PTDSVYVMPTV [MYO7A_Y1668] | 0.911 |
| NQDRTYYESVR [SPEN_Y632] | 0.924 |
| FSTDCYRVGGH [NTRK2_Y707_Y706C_YF] | 0.827 |
| KDQPDYKFQPR [SOX9_Y172_H169Q_YF] | 1.2 |
| KSVLVYRNGDP [DCDC2_Y22] | 0.972 |
| FTHSDYQFSQR [PKP2_Y166_YF] | 1 |
| ADRNHYRRFRR [YBX1_Y145_P149R_YF] | 0.669 |

| Sequence | SH2 binding enrichment |
| --- | --- |
| FARNSYVAGQY [G6PD_Y107] | 0.826 |
| FSEVRYMKEPY [HIPK4_Y170_V171M] | 1.06 |
| FFFDLYGGEKF [PTPN11_Y66_D61Y_YF] | 0.831 |
| VYYGSYSCPYG [NKAP_Y104_R106C] | 0.653 |
| SSFSRYIMMPN [LEF1_Y114_G113R_YF] | 0.73 |
| LGSNTYPFLLT [SAG_Y120] | 0.695 |
| DTLLEYLENPK [CYCS_Y68_M66L] | 0.763 |
| AKAEICEMRPL [COX10_Y97_Y97C] | 1.01 |
| IGEVVYQRAVM [GRIN2A_Y502] | 0.752 |
| SFCFRYRCAAR [SUMF1_Y344_YF] | 0.669 |
| LTFDEYRNNSQ [ANXA3_Y216_I219N] | 0.654 |
| RVLHNYLVWRV [ECEL1_Y400] | 1.74 |
| SLVGCYNLTFM [HS6ST3_Y323] | 0.599 |
| LKTNCYNNGKD [DNMT3B_Y404] | 0.764 |
| TLERHYEELQA [SPTBN2_Y834] | 0.586 |
| CTTIHYSFMCN [TP53_Y234_N235S_YF] | 1.88 |

Each sequence was assayed against SHP2-C SH2 in the same assay as above.

| Sequence | SH2 binding enrichment |
| --- | --- |
| FDSPFYQDSLP [TSC1_Y508_R509Q] | 0.688 |
| HKANEYYPVVL [ADAMTS18_Y764] | 0.907 |
| GVMLLYYGRYN [ADGRD1_Y85_T82M] | 0.921 |
| SSSNPYSTVTM [ACTN2_Y599] | 7.62 |
| AEQEEYSAMRD [NRAS_Y64_G60E] | 0.785 |
| GKTQQYECKWF [BCR_Y751_D752E_YF] | 0.529 |
| RELGEYALAEF [ALDH1A3_Y492_YF] | 0.411 |
| TYGQVYKGPHV [TNIK_Y40_R43P] | 0.755 |
| RLGDLYKEEMR [VIM_Y150_E151K] | 0.752 |
| EEKKKYYDAKI [CASP5_Y103_T106A] | 1.02 |
| PTDSVYVMPTV [MYO7A_Y1668] | 0.683 |
| NQDRTYYESVR [SPEN_Y632] | 0.963 |
| FSTDCYRVGGH [NTRK2_Y707_Y706C_YF] | 0.745 |
| KDQPDYKFQPR [SOX9_Y172_H169Q_YF] | 0.829 |
| KSVLVYRNGDP [DCDC2_Y22] | 0.829 |
| FTHSDYQFSQR [PKP2_Y166_YF] | 0.723 |
| ADRNHYRRFRR [YBX1_Y145_P149R_YF] | 0.659 |

| Sequence | SH2 binding enrichment |
| --- | --- |
| FARNSYVAGQY [G6PD_Y107] | 0.651 |
| FSEVRYMKEPY [HIPK4_Y170_V171M] | 0.757 |
| FFFDLYGGEKF [PTPN11_Y66_D61Y_YF] | 1.36 |
| VYYGSYSCPYG [NKAP_Y104_R106C] | 0.715 |
| SSFSRYIMMPN [LEF1_Y114_G113R_YF] | 0.728 |
| LGSNTYPFLLT [SAG_Y120] | 0.804 |
| DTLLEYLENPK [CYCS_Y68_M66L] | 0.735 |
| AKAEICEMRPL [COX10_Y97_Y97C] | 0.798 |
| IGEVVYQRAVM [GRIN2A_Y502] | 0.484 |
| SFCFRYRCAAR [SUMF1_Y344_YF] | 0.483 |
| LTFDEYRNNSQ [ANXA3_Y216_I219N] | 0.616 |
| RVLHNYLVWRV [ECEL1_Y400] | 1.79 |
| SLVGCYNLTFM [HS6ST3_Y323] | 0.553 |
| LKTNCYNNGKD [DNMT3B_Y404] | 0.694 |
| TLERHYEELQA [SPTBN2_Y834] | 0.52 |
| CTTIHYSFMCN [TP53_Y234_N235S_YF] | 4.43 |

These sequences were tested against c-Src SH2 in the same assay as above.

| Sequence | SH2 binding enrichment |
| --- | --- |
| FDSPFYQDSLP [TSC1_Y508_R509Q] | 0.586 |
| HKANEYYPVVL [ADAMTS18_Y764] | 0.985 |
| GVMLLYYGRYN [ADGRD1_Y85_T82M] | 0.96 |
| SSSNPYSTVTM [ACTN2_Y599] | 3.42 |
| AEQEEYSAMRD [NRAS_Y64_G60E] | 0.456 |
| GKTQQYECKWF [BCR_Y751_D752E_YF] | 0.488 |
| RELGEYALAEF [ALDH1A3_Y492_YF] | 0.93 |
| TYGQVYKGPHV [TNIK_Y40_R43P] | 0.579 |
| RLGDLYKEEMR [VIM_Y150_E151K] | 0.607 |
| EEKKKYYDAKI [CASP5_Y103_T106A] | 0.521 |
| PTDSVYVMPTV [MYO7A_Y1668] | 0.429 |
| NQDRTYYESVR [SPEN_Y632] | 5 |
| FSTDCYRVGGH [NTRK2_Y707_Y706C_YF] | 0.636 |
| KDQPDYKFQPR [SOX9_Y172_H169Q_YF] | 0.675 |
| KSVLVYRNGDP [DCDC2_Y22] | 0.622 |
| FTHSDYQFSQR [PKP2_Y166_YF] | 0.62 |
| ADRNHYRRFRR [YBX1_Y145_P149R_YF] | 0.428 |

| Sequence | SH2 binding enrichment |
| --- | --- |
| FARNSYVAGQY [G6PD_Y107] | 0.495 |
| FSEVRYMKEPY [HIPK4_Y170_V171M] | 0.484 |
| FFFDLYGGEKF [PTPN11_Y66_D61Y_YF] | 0.631 |
| VYYGSYSCPYG [NKAP_Y104_R106C] | 0.705 |
| SSFSRYIMMPN [LEF1_Y114_G113R_YF] | 0.946 |
| LGSNTYPFLLT [SAG_Y120] | 0.487 |
| DTLLEYLENPK [CYCS_Y68_M66L] | 0.501 |
| AKAEICEMRPL [COX10_Y97_Y97C] | 0.679 |
| IGEVVYQRAVM [GRIN2A_Y502] | 0.477 |
| SFCFRYRCAAR [SUMF1_Y344_YF] | 0.4 |
| LTFDEYRNNSQ [ANXA3_Y216_I219N] | 0.417 |
| RVLHNYLVWRV [ECEL1_Y400] | 1.73 |
| SLVGCYNLTFM [HS6ST3_Y323] | 0.432 |
| LKTNCYNNGKD [DNMT3B_Y404] | 0.429 |
| TLERHYEELQA [SPTBN2_Y834] | 18.6 |
| CTTIHYSFMCN [TP53_Y234_N235S_YF] | 2.62 |
